Results published in patent US8389468B2, “Approach to the treatment of compartment syndrome” (Lantmannen AS-Faktor AB, priority 2006, dated 2013).

System: HSV-1 infected rats
Assay: Intracranial pressure (ICP) and neurological symptoms in HSV-1 infected rats, fibre optic pressure sensor
Assay type: in vivo, rat
Conditions: HSV-1 infected rat treated twice daily, day 5
Method: Adult rats were infected by having a solution of the Herpes Simplex virus type 1 (HSV-1; strain 2762, batch 041028; 1.7×10^7 PFU/mL; 25 pL) instilled in their right nostril. One group of animals (n=6) received 10 min after the infection 25 pL (10 pg) of AF-16 in their right nostril, and had thereafter the same dose of AF-16 instilled twice daily, every morning at 8 AM and every night at 6 PM, until the experiment was terminated on day 6. Additional HSV-1 infected rats (n=6) received in the nose at the same time intervals 25 pL of the vehicle, phosphate buffered saline (PBS). On day 6, the animals were anaesthetized, a surgical incision made through the skin on the head, and the skull bone freed from periostium and connective tissue. A hole with a diameter of about 1 mm was drilled through the right parietal bone and a miniature pressure sensor inserted 3-5 mm into the brain or into the lateral ventricle. A fibre optic pressure measure system (Samba System 3200 & Samba Preclin 420 sensor; Samba Sensors AB, V Frolunda, Sweden) with a very small diameter, ve. 0.4 mm, was used. […] HSV-1 infected rats treated with just the vehicle were measured to have as high pressures as up to 30-45 mm Hg (FIG. 2a), considerably affect the animals as reflected by symptoms of neurological dysfunction of increasing severity. In contrast, HSV-1 infected rats treated from the time of infection with AF-16 twice daily had almost normal ICP, 8-14 mm Hg (FIG. 2 b).
Additional HSV-1 infected animals with distinctly overt symptoms were as well treated with 10 or 25 pg AF-16 intranasally, starting on day 5, 6 or 7, i.e. after having had the vehicle during the previous days. […] Thus, non of the acutely AF-16 treated rats had any persistent signs of deleterious ICP and thus no CS developed. […] That is seen in the mentioned figure (FIG. 5 a) as there is no red staining of the right half on the figure. However, treatment with 10 or 25 pg AF-16 intranasally turned the picture in HSV-1 infected rats as in the normal, non-infected ones. […] Thereby the outflow of CSF was restored and the ICP turned normal.

B1: AF: antisecretory factor; antisecretory proteins and peptides; in FIG. 2b probably AF-16 (protein, UniProt P55036 1-377, looked up)
26S proteasome non-ATPase …: MVLESTMVCVDNSEYMRNGDFLPTRLQAQQDAVNIVCHSKTRSNPENNVGLITLANDCEVLTTLTPDTGRILSKLHTVQPKGKITFCTGIRVAHLALKHRQGKNHKMRIIAFVGSPVEDNEKDLVKLAKRLKKEKVNVDIINFGEEEVNTEKLTAFVNTLNGKDGTGSHLVTVPPGPSLADALISSPILAGEGGAMLGLGASDFEFGVDPSADPELALALRVSMEEQRQRQEEEARRAAAASAAEAGIATTGTEDSDDALLKMTISQQEFGRTGLPDLSSMTEEEQIAYAMQMSLQGAEFGQAESADIDASSAMDTSEPAKEEDDYDVMQDPEFLQSVLENLPGVDPNNEAIRNAMGSLASQATKDGKKDKKEEDKK
For B1, the “ICP (FIG. 2b)” value was “almost turned the ICP back to normal levels”.
